Experimental data reported in US20110129457A1.

Columns and labels:
[1] = target: biotinylated-ShhN-Cys (human Shh residues 24-197, N-terminal His6-tag, biotin conjugated) (human) (UniProt Q15465); test: competition ELISA: 5E1 against immobilized Hhip1β12 for biotinylated ShhN-Cys
[2] = target: Human Ihh (residues 29-202), N-terminal His6-tag (human) (UniProt Q14623); test: SPR (BIAcore-2000), 5E1 IgG immobilized on CM5, Hh injected, 1:1 Langmuir fit
[3] = target: Shh (human Sonic hedgehog residues 25-197, N-terminal His6-tag) (human) (UniProt Q15465); test: as above
[4] = target: Shh649 (ShhC-Cys conjugated with DyLight 649 Maleimide) (human) (UniProt Q15465); test: FACS competition: 1 nM Shh649 preincubated with 5E1, then bound to Ptch1-expressing 293 cells; the blocked partner is Ptch1
[5] = target: fully lipid-modified Shh secreted by human HT29 cells (human) (UniProt Q15465); test: cell-based or functional assay

Sequence of Human Ihh (residues 29-202), N-terminal His6-tag (human) (Q14623 other isoform, or with tags, fused parts or gaps limits assumed): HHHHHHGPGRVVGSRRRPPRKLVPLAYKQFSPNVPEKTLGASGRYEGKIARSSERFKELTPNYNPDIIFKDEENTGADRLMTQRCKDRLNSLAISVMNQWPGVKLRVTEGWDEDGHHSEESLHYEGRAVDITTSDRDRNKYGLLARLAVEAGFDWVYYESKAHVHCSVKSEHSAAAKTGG

Row | IC50 [1] | Kd [2] | Kd [3] | IC50 (read off the curve) [4] | IC50, inhibition of Gli-luciferase activity in HT29/S12 co-culture [5] | Substance
1 | 23 nM | 3 nM | 3 nM | 0.5 nM | – | anti-Shh monoclonal antibody 5E1
2 | – | – | – | – | 5.3 nM | Hhip1ECD (Hhip1 extracellular domain, residues 20-667), N-terminally His6-tagged (from UniProt Q96QV1 20-667) (receptor)
